Experiments:
[1] = system: HCT-116 cells, a colon cancer cell line; assay: Apoptosis induction by secretory DR4 scFv protein, MTT method, HCT-116 cells; assay type: cell-based; details: HCT-116 cells expressing DR4; low and high concentrations; FIG. 4(C)
Procedure: (§1) To this end, apoptosis-inducing effects of secretory humanized DR4 scFv antibody recombinant protein were analyzed using HeLa cells, a cervical cancer cell line expressing DR4 on the cell surface, and HCT-116 cells, a colon cancer cell line. […] Each of these three cells was inoculated in a culture dish and cultured overnight, and then the secretory humanized DR4 scFv antibody recombinant protein was added to the culture medium, and the degree of death of the cells during culturing was determined by MTT method (Cyto X™ Cell viability assay kit, LPS solution, Korea).

[2] = system: HEK293 cells which do not express DR4; assay: Apoptosis induction by secretory DR4 scFv protein, MTT method, HEK293 control cells; assay type: cell-based, human; details: HEK293 cells not expressing DR4; protein added to culture medium at low and high concentrations; FIG. 4(A)
Procedure: as §1

[3] = system: HeLa cells, a cervical cancer cell line expressing DR4; assay: Apoptosis induction by secretory DR4 scFv protein, MTT method, HeLa cells; assay type: cell-based; details: low and high concentrations, FIG. 4(B)
Procedure: as §1

B1: secretory humanized DR4 scFv antibody recombinant protein: Secreted humanized anti-DR4 scFv (SEQ ID NO: 1) with isoleucine zipper, Flag and His6 tags, expressed from pCMVFL-srkDR4 in HEK293 cells (protein)
scFv: EVQLVESGGGLVQPGGSLRLSCSASGFTFSSYSMQWVRQAPGKGLEYVAGIRSDGRYTNYGAAVKGRATISRDNSKNTVYLQMNSLRAEDTAVYYCAKGAYGYCGSTCAPYLGQIDAWGQGTLVTVSSGSTSGSGKPGSGEGSTKGSYELTQPPSVSVSPGQTVRITCSGGRYTYGWFQQKPGQAPVTVIYGNDKRPSNIPSRFSGSTSGSTVTLTISGVQAEDEADYYCGGADFSAGLFGGGTKLTVL
modifications: left off: small tags and cut ends; a dimerising Fc or GST
apoptosis effect (degree of death of the cells by MTT method) [1]: apoptosis increased in proportion to the concentration | apoptosis effect (degree of death of the cells by MTT method) [2]: not observed | apoptosis effect (degree of death of the cells by MTT method) [3]: apoptosis increased in proportion to the concentration
